Test results published in PMC3949579.

Tests used:
[1] = molecular target: DBAIg (full recombinant mouse IgG2b antibody encoding the DBA/1J Ighv1-4 germline sequence) (mouse (DBA/1J) | mouse); experiment: SPR
[2] = molecular target: M2139Ig (full recombinant mouse IgG2b antibody with the M2139 sequence) (mouse); experiment: SPR

Kd [1]: 0.274 µM
koff [1]: 0.00446 s⁻¹
kon [1]: 16300 M⁻¹ s⁻¹
Kd [2]: 0.0388 µM
koff [2]: 0.00268 s⁻¹
kon [2]: 68900 M⁻¹ s⁻¹
Substance: triple-helical J1 peptide (synthetic peptide containing the J1 epitope of type II collagen)
